{"source": "patent US11994512B2", "about": "“Single-cell genomic methods to generate ex vivo cell systems that recapitulate in vivo biology with improved fidelity” (Massachusetts Institute of Technology, priority 2018, dated 2024)", "molecules": {"B1": {"name": "Q9R098 (protein, UniProt Q9R098 1-653, looked up)", "chain": "MGRQAWISSLCPLPRPCPFLLLLLLLVVPRGAQPQAGRNHTEPPGPNVTATPVTPTIPVISGNVSTSTESAPAAETEGPQSERYPPPSSSSPPGGQVLTESGQPCRFPFRYGGRMLHSCTSEGSAYRKWCATTHNYDRDRAWGYCAEVTLPVEGPAILDPCASGPCLNGGTCSSTHDHGSYHCSCPLAFTGKDCGTEKCFDETRYEYFEVGDHWARVSEGHVEQCGCMEGQARCEDTHHTACLSSPCLNGGTCHLIVGTGTSVCTCPLGYAGRFCNIVPTEHCFLGNGTEYRGVASTAASGLSCLAWNSDLLYQELHVDSVAAAVLLGLGPHAYCRNPDKDERPWCYVVKDNALSWEYCRLTACESLARVHSQTPEILAALPESAPAVRPTCGKRHKKRTFLRPRIIGGSSSLPGSHPWLAAIYIGNSFCAGSLVHTCWVVSAAHCFANSPPRDSITVVLGQHFFNRTTDVTQTFGIEKYVPYTLYSVFNPNNHDLVLIRLKKKGERCAVRSQFVQPICLPEAGSSFPTGHKCQIAGWGHMDENVSSYSNSLLEALVPLVADHKCSSPEVYGADISPNMLCAGYFDCKSDACQGDSGGPLVCEKNGVAYLYGIISWGDGCGRLNKPGVYTRVANYVDWINDRIRPPKRPVATS", "modifications": "full-length"}, "B2": {"name": "Q9WVJ3 (protein, UniProt Q9WVJ3 1-470, looked up)", "chain": "MRSLFFLFIVHLLALGSGKAVFKNGVSQRTFREIKEEIANYEDVAKAIINLAVYGKYQNRSYERLGLLVDTVGPRLSGSKNLEKAIQIMYQNLQQDGLENVHLEQVRIPHWERGEESAVMLEPRIHKMAILGLGSSIGTPPGGITAEVLVVASFDELQRRASEARGKIIVYNQPYTGYEKTVQYRVQGAVEAAKVGAVASLIQSVASFSIYSPHTGIQKYQDGVPKIPTACITVEDAEMMSRMASRGNKIVIHLEMGAKTYPDTDSFNTVAEITGSMYPEEVVLVSGHLDSWDVGQGALDDGGGAFISWEALSLVKDLGLRPKRTLRLVLWTAEEQGGIGASQYYELHKANISKYSLVMEADSGTFLPTGLQFTGSDKARAIMKEVMNLLQPLNVTKVFSNGEGTDINFWIQAGVPGASLRDDLYKYFFFHHSHGDTMTVMDPKQMNVAAAVWAVVAYVVADMDEMLPRS", "modifications": "full-length"}}, "tested_on": "intracellular proteome of ENR+CD and ENR organoids", "assay": "LC-MS/MS TMT proteomics of ENR+CD versus ENR organoids", "assay_type": "cell-based, C57BL/6 mice", "conditions": "for Average logFC: ENR+CD versus ENR organoids, sample pairs in aggregate (n=4, 2 technical replicates from two biological donors); for M1-1 Log2 Median Normalized / M1-2 Log2 Median Normalized / M2-1 Log2 Median Normalized / M2-2 Log2 Median Normalized: protein abundance ratio ENR+CD versus ENR organoids, LC-MS/MS TMT proteomics; for M1-1 Log2 Median Normalized: sample pair M1-1; for M1-2 Log2 Median Normalized: sample pair M1-2; for M2-1 Log2 Median Normalized: sample pair M2-1; for M2-2 Log2 Median Normalized: sample pair M2-2; for change: up = enriched in ENR+CD, down = enriched in ENR, FDR<0.05 and log fold change cut-off", "data": [{"molecule": "B1", "values": [{"measurement": "Average logFC", "value": 1.366}, {"measurement": "M1-1 Log2 Median Normalized", "value": 1.864}, {"measurement": "M1-2 Log2 Median Normalized", "value": 1.188}, {"measurement": "M2-1 Log2 Median Normalized", "value": 0.7445}, {"measurement": "M2-2 Log2 Median Normalized", "value": 1.669}, {"measurement": "change", "value": "up"}]}, {"molecule": "B2", "values": [{"measurement": "Average logFC", "value": 1.351}, {"measurement": "M1-1 Log2 Median Normalized", "value": 1.348}, {"measurement": "M1-2 Log2 Median Normalized", "value": 0.221}, {"measurement": "M2-1 Log2 Median Normalized", "value": 2.1645}, {"measurement": "M2-2 Log2 Median Normalized", "value": 1.67}, {"measurement": "change", "value": "up"}]}]}
